We go through two substances from patent US20050038611.

This data set has as its target T1, ribosomal protein S8 (Staphylococcus aureus) (UniProt A6U3W1).
T1 sequence: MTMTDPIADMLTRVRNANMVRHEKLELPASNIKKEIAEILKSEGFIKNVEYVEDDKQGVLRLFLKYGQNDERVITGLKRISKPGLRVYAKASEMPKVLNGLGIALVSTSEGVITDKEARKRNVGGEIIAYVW
Put plainly: filter. To be noted: 80 mM HEPES-KOH pH 7.6, 350 mM KOAc, 20 mM MgOAc, on ice.

What is called Kd is the free concentration of one partner at which half of the binding sites on the other are occupied at equilibrium, for simple one-to-one binding.

On to S. aureus Helix 21 A604-U652 to G-C, for which the binding signal (fold decrease in affinity vs wild type) (apparent Kd in Table 5 not given) came out at 10. As for “S. aureus Helix 21 rRNA wild type (nts 596-659 of 16S rRNA)”, the Kd was 400 nM.
